# Source: IntAct's records for PubMed 29039417
# B1: BBSome complex member BBS1 (Homo sapiens), Q8NFJ9 (parent)
# chain: MAAASSSDSDACGAESNEANSKWLDAHYDPMANIHTFSACLALADLHGDGEYKLVVGDLGPGGQQPRLKVLKGPLVMTESPLPALPAAAATFLMEQHEPRTPALALASGPCVYVYKNLRPYFKFSLPQLPPNPLEQDLWNQAKEDRIDPLTLKEMLESIRETAEEPLSIQSLRFLQLELSEMEAFVNQHKSNSIKRQTVITTMTTLKKNLADEDAVSCLVLGTENKELLVLDPEAFTILAKMSLPSVPVFLEVSGQFDVEFRLAAACRNGNIYILRRDSKHPKYCIELSAQPVGLIRVHKVLVVGSTQDSLHGFTHKGKKLWTVQMPAAILTMNLLEQHSRGLQAVMAGLANGEVRIYRDKALLNVIHTPDAVTSLCFGRYGREDNTLIMTTRGGGLIIKILKRTAVFVEGGSEVGPPPAQAMKLNVPRKTRLYVDQTLREREAGTAMHRAFQTDLYLLRLRAARAYLQALESSLSPLSTTAREPLKLHAVVQGLGPTFKLTLHLQNTSTTRPVLGLLVCFLYNEALYSLPRAFFKVPLLVPGLNYPLETFVESLSNKGISDIIKVLVLREGQSAPLLSAHVNMPGSEGLAAA
# partner: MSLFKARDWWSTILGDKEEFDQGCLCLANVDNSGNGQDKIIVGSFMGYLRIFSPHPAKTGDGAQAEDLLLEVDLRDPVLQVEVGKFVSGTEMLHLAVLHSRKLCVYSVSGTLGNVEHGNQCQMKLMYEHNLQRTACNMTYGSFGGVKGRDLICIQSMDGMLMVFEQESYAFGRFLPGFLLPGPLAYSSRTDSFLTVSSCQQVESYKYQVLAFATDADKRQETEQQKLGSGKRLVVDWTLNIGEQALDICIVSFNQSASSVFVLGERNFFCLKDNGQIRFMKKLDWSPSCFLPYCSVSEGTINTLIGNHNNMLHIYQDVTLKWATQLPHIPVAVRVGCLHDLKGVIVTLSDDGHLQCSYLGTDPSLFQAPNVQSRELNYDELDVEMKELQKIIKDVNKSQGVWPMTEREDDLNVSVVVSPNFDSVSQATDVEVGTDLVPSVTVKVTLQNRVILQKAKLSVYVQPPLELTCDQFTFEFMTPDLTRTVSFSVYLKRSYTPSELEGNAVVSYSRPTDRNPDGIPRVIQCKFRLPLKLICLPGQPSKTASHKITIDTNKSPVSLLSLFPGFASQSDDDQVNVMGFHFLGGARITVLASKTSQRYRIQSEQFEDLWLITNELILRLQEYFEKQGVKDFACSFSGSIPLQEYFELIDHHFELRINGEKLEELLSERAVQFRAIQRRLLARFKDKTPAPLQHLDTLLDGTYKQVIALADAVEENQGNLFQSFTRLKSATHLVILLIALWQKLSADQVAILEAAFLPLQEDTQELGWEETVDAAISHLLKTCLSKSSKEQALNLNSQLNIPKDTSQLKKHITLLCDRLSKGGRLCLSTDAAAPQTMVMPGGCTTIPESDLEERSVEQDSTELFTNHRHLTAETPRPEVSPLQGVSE
# Variants of: B1
# Details: with pthb1_human BBS9, Q3SYG4
row,Variant,effect of a mutation on the interaction
1,E484K,with no effect
2,P485A,with no effect
3,P485E,with no effect
4,P485K,with no effect
5,L486A,with no effect
6,L486E,disrupting interaction strength
7,L486K,disrupting interaction strength
8,K487A,with no effect
9,K487E,with no effect
10,L488A,with no effect
11,L488E,with no effect
12,L488K,with no effect
13,H489A,with no effect
14,H489E,with no effect
15,H489K,with no effect
16,A490E,with no effect
17,A490K,with no effect
18,V491A,with no effect
19,V491E,with no effect
20,V491K,with no effect
21,V492A,with no effect
22,V492E,with no effect

row,Variant,effect of a mutation on the interaction
1,V492K,with no effect
2,Q493A,with no effect
3,Q493E,with no effect
4,Q493K,with no effect
5,G494A,with no effect
6,G494E,with no effect
7,G494K,with no effect
8,L495A,with no effect
9,L495E,with no effect
10,L495K,with no effect
11,G496A,with no effect
12,G496E,with no effect
13,G496K,with no effect
14,P497A,with no effect
15,P497E,with no effect
16,P497K,with no effect
17,T498A,with no effect
18,T498E,with no effect
19,T498K,with no effect
20,F499A,with no effect
21,F499E,disrupting interaction strength
22,F499K,with no effect

row,Variant,effect of a mutation on the interaction
1,K500A,with no effect
2,K500E,with no effect
3,L501A,disrupting interaction strength
4,L501E,disrupting interaction strength
5,L501K,disrupting interaction strength
6,T502A,with no effect
7,T502E,with no effect
8,T502K,with no effect
9,L503A,with no effect
10,L503E,disrupting interaction strength
11,L503K,disrupting interaction strength
12,H504A,with no effect
13,H504E,with no effect
14,H504K,with no effect
15,L505A,with no effect
16,L505E,disrupting interaction strength
17,L505K,disrupting interaction strength
18,L505P,disrupting interaction strength
19,Q506A,with no effect
20,Q506E,with no effect
21,Q506K,with no effect
22,N507A,with no effect

row,Variant,effect of a mutation on the interaction
1,N507E,disrupting interaction strength
2,N507K,with no effect
3,T508A,with no effect
4,T508E,with no effect
5,T508K,with no effect
6,S509A,with no effect
7,S509E,with no effect
8,S509K,with no effect
9,S509L,disrupting interaction strength
10,T510A,with no effect
11,T510E,with no effect
12,T510K,with no effect
13,T511A,with no effect
14,T511E,with no effect
15,T511K,with no effect
16,R512A,with no effect
17,R512E,with no effect
18,R512K,with no effect
19,P513A,with no effect
20,P513E,with no effect
21,P513K,with no effect
22,V514A,with no effect

row,Variant,effect of a mutation on the interaction
1,V514E,with no effect
2,V514K,with no effect
3,L515A,with no effect
4,L515E,with no effect
5,L515K,with no effect
6,G516A,disrupting interaction strength
7,G516E,with no effect
8,G516K,with no effect
9,L517A,with no effect
10,L517E,disrupting interaction strength
11,L517K,disrupting interaction strength
12,L518A,with no effect
13,L518E,with no effect
14,L518K,with no effect
15,L518P,disrupting interaction strength
16,V519A,with no effect
17,V519E,disrupting interaction strength
18,V519K,disrupting interaction strength
19,C520A,with no effect
20,C520E,with no effect

# The remaining lines, values ahead:
row,effect of a mutation on the interaction,Variant
1,with no effect,C520K
2,with no effect,F521A
3,disrupting interaction strength,F521E
4,disrupting interaction strength,F521K
5,with no effect,L522A
6,with no effect,L522E
7,with no effect,L522K
8,disrupting interaction strength,Y523A
9,disrupting interaction strength,Y523E
10,with no effect,Y523K
11,disrupting interaction strength,N524A
12,with no effect,N524E
13,with no effect,N524K
14,with no effect,E525A
15,with no effect,E525K
16,with no effect,A526E
17,with no effect,A526K
18,with no effect,L527A
19,with no effect,L527E
20,with no effect,L527K

row,effect of a mutation on the interaction,Variant
1,disrupting interaction strength,L527P
2,disrupting interaction strength,Y528A
3,disrupting interaction strength,Y528C
4,disrupting interaction strength,Y528E
5,disrupting interaction strength,Y528K
6,with no effect,S529A
7,with no effect,S529E
8,with no effect,S529K
9,disrupting interaction strength,L530A
10,disrupting interaction strength,L530D
11,disrupting interaction strength,L530E
12,disrupting interaction strength,L530K
13,disrupting interaction strength,L530N
14,disrupting interaction strength,L530Q
15,disrupting interaction strength,L530R
16,disrupting interaction strength,L530T
17,disrupting interaction strength,L530V
18,with no effect,P531A
19,with no effect,P531E
20,with no effect,P531K

row,effect of a mutation on the interaction,Variant
1,with no effect,R532A
2,with no effect,R532E
3,with no effect,R532K
4,with no effect,A533E
5,with no effect,A533K
6,with no effect,F534A
7,with no effect,F534E
8,with no effect,F534K
9,with no effect,F535A
10,with no effect,F535E
11,with no effect,F535K
12,with no effect,K536A
13,with no effect,K536E
14,with no effect,V537A
15,disrupting interaction strength,V537E
16,disrupting interaction strength,V537K
17,with no effect,P538A
18,with no effect,P538E

# Variants of: B1
# Details: with pthb1_human BBS9, Q3SYG4
# Remark: another data set of the same source
row,Variant,effect of a mutation on the interaction
1,N507E,with no effect
